# Reference: US20260242735A1 (UNIVERSIT T BASEL, published 2026)
# B1: Refmab #4 (antibody, human IgG1, V domains shown)
# VH: QVQLVQSGAEVKKPGESVKVSCKASGYTFTNYGMNWVKQAPGQGLEWMGWINTYTGEPTYADKFQGRVTMTTDTSTSTAYMEIRNLGGDDTAVYYCARWSWSDGYYVYFDYWGQGTSVTVSS
# VL: DIVMTQSPDSLTVSLGERTTINCKSSQSVLDSSTNKNSLAWYQQKPGQPPKLLLSWASTRESGIPDRFSGSGSGTDFTLTIDSPQPEDSATYYCQQSAHFPITFGQGTRLEIK
# B2: Refmab #3 (antibody, human IgG1, V domains shown)
# VH: QVQLVQSGAEVKKPGSSVKVSCKASGYTFTDYNMHWVRQAPGQGLEWIGYIYPYNGGTGYNQKFKSKATITADESTNTAYMELSSLRSEDTAVYYCARGRPAMDYWGQGTLVTVSS
# VL: DIQMTQSPSSLSASVGDRVTITCRASESVDNYGISFMNWFQQKPGKAPKLLIYAASNQGSGVPSRFSGSGSGTDFTLTISSLQPDDFATYYCQQSKEVPWTFGQGTKVEIK
# B3: Refmab #6 (antibody, human IgG1, V domains shown)
# VH: QVQLQQPGAEVVKPGASVKMSCKASGYTFTSYYIHWIKQTPGQGLEWVGVIYPGNDDISYNQKFQGKATLTADKSSTTAYMQLSSLTSEDSAVYYCAREVRLRYFDVWGQGTTVTVSS
# VL: EIVLTQSPGSLAVSPGERVTMSCKSSQSVFFSSSQKNYLAWYQQIPGQSPRLLIYWASTRESGVPDRFTGSGSGTDFTLTISSVQPEDLAIYYCHQYLSSRTFGQGTKLEIK
# B4: Refmab #5 (antibody, V domains shown)
# VH: QVQLVQSGAEVKKPGASVKVSCKASGYTFTNYDINWVRQAPGQGLEWIGWIYPGDGSTKYNEKFKAKATLTADTSTSTAYMELRSLRSDDTAVYYCASGYEDAMDYWGQGTTVTVSS
# VL: DIQMTQSPSSLSASVGDRVTINCKASQDINSYLSWFQQKPGKAPKTLIYRANRLVDGVPSRFSGSGSGQDYTLTISSLQPEDFATYYCLQYDEFPLTFGGGTKVEIK
# notes: The alanine scan used IgG or Fab
# B5: Refmab #5 (antibody, human IgG1, V domains shown)
# VH: QVQLVQSGAEVKKPGASVKVSCKASGYTFTNYDINWVRQAPGQGLEWIGWIYPGDGSTKYNEKFKAKATLTADTSTSTAYMELRSLRSDDTAVYYCASGYEDAMDYWGQGTTVTVSS
# VL: DIQMTQSPSSLSASVGDRVTINCKASQDINSYLSWFQQKPGKAPKTLIYRANRLVDGVPSRFSGSGSGQDYTLTISSLQPEDFATYYCLQYDEFPLTFGGGTKVEIK
# Legend:
# human CD33 P48S = human CD33 P48S (human, UniProt P20138 18-364); test: flow cytometry, transfected cells
# human CD33 Q24E = human CD33 Q24E (human, UniProt P20138 18-364); test: flow cytometry, transfected cells
# human CD33 F44P = human CD33 F44P (human, UniProt P20138 18-364); test: flow cytometry, transfected cells
# human CD33 H45Y = human CD33 H45Y (human, UniProt P20138 18-364); test: flow cytometry, transfected cells
# human CD33 P46S = human CD33 P46S (human, UniProt P20138 18-364); test: flow cytometry, transfected cells
# human CD33 P46I = human CD33 P46I (human, UniProt P20138 18-364); test: flow cytometry, transfected cells
# human CD33 P46L = human CD33 P46L (human, UniProt P20138 18-364); test: flow cytometry, transfected cells
# human CD33 Y129S = human CD33 Y129S (human, UniProt P20138 18-364); test: flow cytometry, transfected cells
# human CD33 N20L = human CD33 N20L (human, UniProt P20138 18-364); test: flow cytometry, transfected cells
# human CD33 F21H = human CD33 F21H (human, UniProt P20138 18-364); test: flow cytometry, transfected cells
# human CD33 Q24S = human CD33 Q24S (human, UniProt P20138 18-364); test: flow cytometry, transfected cells
# human CD33 Q24H = human CD33 Q24H (human, UniProt P20138 18-364); test: flow cytometry, transfected cells
# human CD33 S131K = human CD33 S131K (human, UniProt P20138 18-364); test: flow cytometry, transfected cells
# human CD33 S131F = human CD33 S131F (human, UniProt P20138 18-364); test: flow cytometry, transfected cells
# human CD33 S131M = human CD33 S131M (human, UniProt P20138 18-364); test: flow cytometry, transfected cells
# human CD33 S131W = human CD33 S131W (human, UniProt P20138 18-364); test: flow cytometry, transfected cells
# human CD33 P132S = human CD33 P132S (human, UniProt P20138 18-364); test: flow cytometry, transfected cells
# human CD33 P132L = human CD33 P132L (human, UniProt P20138 18-364); test: flow cytometry, transfected cells
# human CD33 P132F = human CD33 P132F (human, UniProt P20138 18-364); test: flow cytometry, transfected cells
# human CD33 P132N = human CD33 P132N (human, UniProt P20138 18-364); test: flow cytometry, transfected cells
# human CD33 Y129A = target: T1, human CD33 Y129A (human, UniProt P20138 18-364); test: alanine scan, flow cytometry, HEK293-T;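 further: antibody binding to each alanine-substituted CD33 mutant expressed transiently in HEK293-T, read as fluorescence minus background, mean of duplicates, relative to wild-type CD33 set as 100%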
# T1 construct: alanine scan clone, transfected HEK293-T
# human CD33 L134A = target: T2, human CD33 L134A (human, UniProt P20138 18-364); test: alanine scan, flow cytometry, HEK293-T;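 further: antibody binding to each alanine-substituted CD33 mutant expressed transiently in HEK293-T, read as fluorescence minus background, mean of duplicates, relative to wild-type CD33 set as 100%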
# T2 construct: alanine scan clone, transfected HEK293-T
# human CD33 D51K = human CD33 D51K (human, UniProt P20138 18-364); test: flow cytometry, transfected cells
# human CD33 K52G = human CD33 K52G (human, UniProt P20138 18-364); test: flow cytometry, transfected cells
# human CD33 K52S = human CD33 K52S (human, UniProt P20138 18-364); test: flow cytometry, transfected cells
# human CD33 Y49R = human CD33 Y49R (human, UniProt P20138 18-364); test: flow cytometry, transfected cells
# human CD33 K52T = human CD33 K52T (human, UniProt P20138 18-364); test: flow cytometry, transfected cells
# Sequence of human CD33 K52T (P20138 18-364 K52T limits assumed): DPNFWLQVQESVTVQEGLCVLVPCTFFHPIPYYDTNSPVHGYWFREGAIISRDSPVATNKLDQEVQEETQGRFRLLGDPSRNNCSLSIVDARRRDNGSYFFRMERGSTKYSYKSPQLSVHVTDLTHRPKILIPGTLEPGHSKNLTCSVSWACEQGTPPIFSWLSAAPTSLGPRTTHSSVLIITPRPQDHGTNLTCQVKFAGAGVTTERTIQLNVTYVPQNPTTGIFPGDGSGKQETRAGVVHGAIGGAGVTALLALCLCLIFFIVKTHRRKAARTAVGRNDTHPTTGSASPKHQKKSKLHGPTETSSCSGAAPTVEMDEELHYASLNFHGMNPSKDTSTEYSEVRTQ
# Sequence of human CD33 P132F (P20138 18-364 P132F limits assumed): as the sequence (P20138 18-364 K52T limits assumed) above, with T35K, P115F counted along it
# Sequence of human CD33 P46S (P20138 18-364 P46S limits assumed): as the sequence (P20138 18-364 K52T limits assumed) above, with P29S, T35K counted along it
# Sequence of human CD33 F21H (P20138 18-364 F21H limits assumed): as the sequence (P20138 18-364 K52T limits assumed) above, with F4H, T35K counted along it
# Sequence of human CD33 Q24E (P20138 18-364 Q24E limits assumed): as the sequence (P20138 18-364 K52T limits assumed) above, with Q7E, T35K counted along it
# Sequence of human CD33 S131F (P20138 18-364 S131F limits assumed): as the sequence (P20138 18-364 K52T limits assumed) above, with T35K, S114F counted along it
# T1 sequence (P20138 18-364 Y129A limits assumed): as the sequence (P20138 18-364 K52T limits assumed) above, with T35K, Y112A counted along it
# Sequence of human CD33 P46L (P20138 18-364 P46L limits assumed): as the sequence (P20138 18-364 K52T limits assumed) above, with P29L, T35K counted along it
# Sequence of human CD33 N20L (P20138 18-364 N20L limits assumed): as the sequence (P20138 18-364 K52T limits assumed) above, with N3L, T35K counted along it
# Sequence of human CD33 Y129S (P20138 18-364 Y129S limits assumed): as the sequence (P20138 18-364 K52T limits assumed) above, with T35K, Y112S counted along it
# Sequence of human CD33 K52S (P20138 18-364 K52S limits assumed): as the sequence (P20138 18-364 K52T limits assumed) above, with T35S counted along it
# Sequence of human CD33 P132N (P20138 18-364 P132N limits assumed): as the sequence (P20138 18-364 K52T limits assumed) above, with T35K, P115N counted along it
# Sequence of human CD33 P46I (P20138 18-364 P46I limits assumed): as the sequence (P20138 18-364 K52T limits assumed) above, with P29I, T35K counted along it
# Sequence of human CD33 P132S (P20138 18-364 P132S limits assumed): as the sequence (P20138 18-364 K52T limits assumed) above, with T35K, P115S counted along it
# Sequence of human CD33 Q24H (P20138 18-364 Q24H limits assumed): as the sequence (P20138 18-364 K52T limits assumed) above, with Q7H, T35K counted along it
# Sequence of human CD33 Q24S (P20138 18-364 Q24S limits assumed): as the sequence (P20138 18-364 K52T limits assumed) above, with Q7S, T35K counted along it
# Sequence of human CD33 K52G (P20138 18-364 K52G limits assumed): as the sequence (P20138 18-364 K52T limits assumed) above, with T35G counted along it
# Sequence of human CD33 P48S (P20138 18-364 P48S limits assumed): as the sequence (P20138 18-364 K52T limits assumed) above, with P31S, T35K counted along it
# T2 sequence (P20138 18-364 L134A limits assumed): as the sequence (P20138 18-364 K52T limits assumed) above, with T35K, L117A counted along it
# Sequence of human CD33 Y49R (P20138 18-364 Y49R limits assumed): as the sequence (P20138 18-364 K52T limits assumed) above, with Y32R, T35K counted along it
# Sequence of human CD33 S131W (P20138 18-364 S131W limits assumed): as the sequence (P20138 18-364 K52T limits assumed) above, with T35K, S114W counted along it
# Sequence of human CD33 F44P (P20138 18-364 F44P limits assumed): as the sequence (P20138 18-364 K52T limits assumed) above, with F27P, T35K counted along it
# Sequence of human CD33 P132L (P20138 18-364 P132L limits assumed): as the sequence (P20138 18-364 K52T limits assumed) above, with T35K, P115L counted along it
# Sequence of human CD33 S131M (P20138 18-364 S131M limits assumed): as the sequence (P20138 18-364 K52T limits assumed) above, with T35K, S114M counted along it
# Sequence of human CD33 D51K (P20138 18-364 D51K limits assumed): as the sequence (P20138 18-364 K52T limits assumed) above, with D34K, T35K counted along it
# Sequence of human CD33 H45Y (P20138 18-364 H45Y limits assumed): as the sequence (P20138 18-364 K52T limits assumed) above, with H28Y, T35K counted along it
# Sequence of human CD33 S131K (P20138 18-364 S131K limits assumed): as the sequence (P20138 18-364 K52T limits assumed) above, with T35K, S114K counted along it
binder,measurement,setting,value
B1,binding result,human CD33 P48S,no binding (tested: below 20%)
B2,binding result,human CD33 Q24E,no binding (tested: below 20%)
same,binding result,human CD33 F44P,no binding (tested: below 20%)
same,binding result,human CD33 H45Y,no binding (tested: below 20%)
same,binding result,human CD33 P46S,no binding (tested: below 20%)
same,binding result,human CD33 P46I,no binding (tested: below 20%)
same,binding result,human CD33 P46L,no binding (tested: below 20%)
same,binding result,human CD33 Y129S,no binding (tested: below 20%)
same,binding result,human CD33 N20L,no binding (tested: below 20%)
same,binding result,human CD33 F21H,no binding (tested: below 20%)
same,binding result,human CD33 Q24S,no binding (tested: below 20%)
same,binding result,human CD33 Q24H,no binding (tested: below 20%)
B3,binding result,human CD33 S131K,no binding (tested: below 20%)
same,binding result,human CD33 S131F,no binding (tested: below 20%)
same,binding result,human CD33 S131M,no binding (tested: below 20%)
same,binding result,human CD33 S131W,no binding (tested: below 20%)
same,binding result,human CD33 P132S,no binding (tested: below 20%)
same,binding result,human CD33 P132L,no binding (tested: below 20%)
same,binding result,human CD33 P132F,no binding (tested: below 20%)
same,binding result,human CD33 P132N,no binding (tested: below 20%)
B4,Mean % WT Binding,human CD33 Y129A,196 % WT binding
same,Mean % WT Binding,human CD33 L134A,95.9 % WT binding
B5,binding result,human CD33 D51K,no binding (tested: below 20%)
same,binding result,human CD33 K52G,no binding (tested: below 20%)
same,binding result,human CD33 K52S,no binding (tested: below 20%)
same,binding result,human CD33 Y49R,no binding (tested: below 20%)
same,binding result,human CD33 K52T,no binding (tested: below 20%)
